Results taken from the nanobody polyreactivity screen of Harvey et al. (2022).

Assay: yeast display, Sf9 membrane polyspecificity reagent, FACS + sequencing; frameworks hold sequencing errors
Outline: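 After 36–48 hours of galactose induction, yeast (Saccharomyces cerevisiae BJ5465) displaying a synthetic nanobody library were stained at 4 °C for 1 hour with 10% biotinylated, detergent-solubilized Sf9 membrane reagent. Streptavidin microbeads enriched the stained cells before FACS sorting into low and high (top ~1%) gates on anti-HA and streptavidin fluorescence. Each clone's polyreactivity label reflects its gate of origin.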

Sequence | polyreactivity (PSR sort gate)
QVQIVESGGGLVQAGGSLRLSCAASGFIFNIYAMGWYRQAPGKERELVAAITFSGGSTYYADSVKGRFTISRDNAKNTVYFQMNSLKPEDTAVYYCAADYLSEYTTYDYWGQGTQVTVSS | low polyreactivity
QVQLVESGGGLVQAGGSLRLRCAASGRNIHWYAMGWSRQAPGKEMELVAAITGSGGRTSYADSVKGRFTISRDFAKNTVYLQMNSLKPQDTAVYYCAKRATWYTVPREGYWGQGTQVTVSS | high polyreactivity
QVQLVESGGGLVQAGGSLRLSCAASGRTFESNAMGWYRQAPGKERELVASITDGGSTNYADSVKGRFTISRDNAKNTVYLQMNSLKPEDSAVYYCNVTKRGSLWSVPDQTYDYWGQGTQVTVSS | low polyreactivity
QVQLVESGGGLVQAGGSLRLSCAASGNTLAANAMGWYRQAPGKERELVAAITYSGGSTYYADSVKGRFTISRDNSKNTVYLQMNSLKPLDTAVYYCAAEGYYSNYHYWGQGTQVTVSW | low polyreactivity
QVLLVESGGGLVQAGGSLRLSCSASGNAMGWYRQAPGKERELVAAITRRGGSTYYADSVKGSFTISRDNAKNTVYLQMNSLKPEDTAVYYCADDNPSYNLWYGYWGQGTQVTVSS | low polyreactivity
QVQLVESGGGLVQAGGSLRLSCAASGITFQYYAMGWYRQAPGKERELVAAITSSGVSTYYADSVKGRFTISRDNAKNTVYLQMNSLKPEDTAVYYCNTVVRGWSTSAYDYWGQGTQVTVSS | low polyreactivity
QVQLVESGGRLVQAGGSIRLSCAASGSTLNVNAMGGYRQAPGKERELVAAITSGGSTYYADSVKGRFTISRDNAKNTVYLQMNSLKPEDTAVYYCNKRRSWRPTYPIGGSGFYYWGQGTQVTVSS | low polyreactivity
QVQLVESGGGLVQAGGSLRLSCAASGSTFGRYAMGWYRPAPGKGRELDGAISRRGGSTYYADSVKGRFTISRDYAMKTVYFQMHSLKPEDTAVYDCATGYPIELGREFDYWGQGIQVTVSS | high polyreactivity
QVQLVESGGGLVQAGGSLRLSCAAAGSNFLGYAMGWYRQAPGKERELVANITSSGSTSYADSVKGRFTISRDNAKNTVYLQMNSLKPEVTAVYYCAARFRRTYDYWGQGTQVTVSS | high polyreactivity
QVQLVESGGGLLQAGGSLRLSCAASGRTFLGYAMGWYIQAPGKERELVAAISWDGTSTYYADSLKGRFTISRDNAKNTVYLPMNSLKPEDTAVYYCAAQLTDYQSKTLSYDYWGQGTQVTVSS | low polyreactivity
QVQLVESGGGLVQAGGSLRLSCAASASIFRYYAMGWYRQAPGKERELVAAISYSGGSTYYADSVKGRFTISRDNAKNTVYLQMNSLKPEDTAVYYCAVPLICVDGYAYDYWGQGTQVTVSS | low polyreactivity
QVQLVESGGGLVQAGGSLRLSCAASGSTFVYYAMGSYIQAPGKERELVAAISSGGNTKYADSVKGRFTISRDNAMNTVYLHMNRLKPEDTAVYYCARETQSYFDHDYWGQGTQVTVSS | low polyreactivity
QVQLVESGGGLVQAGGSLRLSCAASGSTFTSYTMGWYRQAPGKERELVARITRGGGSTYYADSVKGRFTISRDNAKNTVYLQMNSLKPEDTRSSPVLSYDYWGQGTQVTVSS | low polyreactivity
QVQLVESGGGLVQAGGSLRLSCAASGIIFGRYAMGWYRQAPGKERELVAAINGSGGSTYYADSVKGRFTISRDNAKNTVYLQMNSLKPEDTAVYYCAVVYYGSIFVLEYDYWGQGTQVTVSS | high polyreactivity
QVQLQESGSGLFQAGGSLRQSCAASGAIFPAYLMGWYRQAPGKERELVAGISYGSITYCADSVKGRFNISRDNAKNTVYLKMNSLKPEDTAVFGYWGQGTQVTVSS | low polyreactivity
QVHLVESGGGLVQAGGSLRLSCAASGRIFGYYAMGWYRQAPGKERELVARISSSGGSTYYADSVKGRFTISRDNAKNTVYLQMNSLKPEDTAVYYCNTASNRYPGWRAEFDYWGQGTQVTVSS | low polyreactivity
QVQLVESGGGLVQAGGSLRLSCAASGFTFVKNAMGWYRQAPGKERELVAAITGSAGRTYYADSVKGRFTISRDNAKNTVYLQMNSLKPEDTAVYYCAAPRFAAPRRIGYDWGQGTQVTVSS | high polyreactivity
QVQLVESGGGLVQAGGSLRLSCAASGFIFAWYAMGWYRQAPGKERELVAAIDYSDGTTYYADSVKGRFTISRDNAKNTVYLQMNSLKPEDTAVYYCAAYNEFVYEDDYWGQGTQVTVSA | low polyreactivity
QVQLVESGGGLVQAGGSLRLSCAASGLIFPIYTMGWYRQAPGKERELVAAISSRGGSTYYADSVKGRFTISRDNAKNTVYLQMNSLKPEDTAVYYFGSYDYSGQGTQVTVSS | high polyreactivity
QVQLVESGVGLVQAGGSLRLSCAASGRIFNDNAMGWYSQAPGKERELVAAISTGGSTNYADSVKWRFTISRDNAKNTVYLQMNSLKPEDTEVYYCAADHPVTYETSKFDYWGQGTQVTVSS | low polyreactivity
QDQLVESGGGLVQAGGSLRLSSAASGFTFAHYARGWYRQAPGKERELVAAISGSGSSTYYADSVKGRFTISRDNAKNTVYLQMNSLKPEDTAVYYCNVRWYFLYDYWGQGTQVTVSS | low polyreactivity

Sequence | polyreactivity (PSR sort gate)
QVQLVESGGGLVQAGGSLRLSCAASGFIFPVNGMGWYRQAPGKERELVAGITRTGTSTYYADSVKGRFTISRDNAKYTVYLQMNSLKPEDTAVYYCAADLYTGRTKYWEFESWGQGTQVTVSS | low polyreactivity
QVQLVDSGGGLVQAGGRLLLSCSDSGINIPYYAMGWYRQAPGKERELVASISYDGTSSYYADSVKGRFTISRDNAKNTVYLHLNSLKPEDTAVYYCAPVPWWPRASYSMDYWGQGTQVTLSS | low polyreactivity
QVQLVESGGGLVQAGGSLRLSCAASGFTFYDYAMGRYIQAPGKERELVAGINSGDSTYYADSVKGRFTISRDNAKNSVYLLMNSLKPEDSAVYYCAADWAWLQWAYDYWGQGTQVTVSS | low polyreactivity
QVQLVESGGGLDQAGGSLRLSCAASGSTFGTYAMGWYRQAPGKEWQLVADITGSGGSTYYADSVKGRFTISRDNAKNTVYLQMNSLKPEDTAVYYCAGEYGLGDDTAYGYWGQGTQGTVSS | low polyreactivity
QVQLVESGGGLVQAGGSLRLSCAASGRTFTGNTMGWYRQAPGKERELVAAITKRGGSTYYADSVKGRFTISRDNAKNTVYLQMNSLKPEDTAVYYCAATSGVYRVGIIKYDYWGQGTQVTVSS | high polyreactivity
QVQLVESCGGLVQAGGSLRLSCAASGYTFGSNAMGWYRQAPGKERELVAAISTNGGRTNYADSVKGRFTISRDNAKNTVYLQMNSLKPEDTAVYYCNTRLRVRYYLSGFDYWGQGTQVTVSS | high polyreactivity
QVQLVESGGGLVQAGGSLRLSCAASGRTFYRNAMGWYRQAPGKERELVASIRRNGGSTYYADSVKGRFTISRDNAKNTVYLQMNSLKPEDTAVYYCAAKFYWRGQSFRSGNFYWGQGTQVTVSS | high polyreactivity
QVQLVDSGGGLVQAGGTLRLSCAASGRIFYRYAMGWYRQAPGKERELVASITRSGITHYADSVKGRFTISRDNAKNTVYLQMNSLKPEDTAVYYCKARRGSPAPYDYWGQGTQVTVSS | high polyreactivity
QVQLVESGGGLVQAGGSLRLSCAASGRTFYGNVMGWYRQPPGKERELVATISFSAGSTYYADSVKGRFTISRDNAKNTVYLQMNSLKPEDTAVYYCNADHTDYATGGGNYWGQGTQVTVSS | low polyreactivity
QVQLVESGGGLVQAGGSLRLSCAASGFTFPPYAMGWYIQAPGKERELVAGISWIGSSTYYADSVKGRFTISRDNAKNTVYLQMNSLKPEDTAVYYCNARYLLFAGGRRYYWGQGTQVTVSS | high polyreactivity
QVQLVESGGGLVQAGGSLRLSCAASGNIFRYYAMGWYRQAPGKERELVARISTGSSTYYADSVKGRFTISRDNAKNTVYLQMNSLKPEDTAVYYCAAANYRYRVPWFYYWGQGTQVTVSS | high polyreactivity
QVQLVESGGGLVQAGGSLRLSCAASGRTFGRNTMGWYRQAPGKERELVAAIDWSGGSTYYADSVKGRFTISRDNAKNTVYLQMNSLKPEDTAVYYCAAASRYPVNYYYWGQGTQVTVSS | high polyreactivity
QDQHVESGGGLVQAGGSLRLSCAASGSIFDVYTMGWYRQAPGKERELVAAINTGGGSTYYADSVKGRFTISRDKAKNTVYLQMNSLKPEDTAVYYCAASVYHYGPLYYWGQGTQVTVSS | low polyreactivity
QVQLVESGGGLVQAGGSLRLSCAASGRIFVYNDMGWYRQAPGKERELVAAISSVGTTYYADSVKGRFTISRDNAKNTVYLQMNSLKPEDTAVYYCAVTRYHSPPRYYYWGQGTQVTVSS | low polyreactivity
QDQLVESGGGLVQAGGSLRLSCAASGSTFRGNAKGWYRQAPGKERELVAAITGSGGRRYYADSVKGRFTISRDYAKNTVYLQMNSLKPEDTAVYYCAAVYYGYRDRTDYGYWGQGTQVTVSS | high polyreactivity
QVQLVESGGGLGQAGGSLRLSCAASGRIFRGYAMGWYRQAPGTDRELVATISAIGGSTYADSVKGRFTIARDNAKNTVYLQMNSLKPEDTAVYYCNKVHFRPRYFLRSDYWGQGTQGTVSS | high polyreactivity
QVQLVESAGGLVQAGGSLRLSCPASGGIFSWYHMGWYRQEPGKERELVAAISWSGGSTYYADSVKGRFTISRDNAKNTVYLLMNSLKPEDTAVYYCADYTADDYDYWGQGTQVTVSS | high polyreactivity
QVQLVESGGGLVHAGGSLPLSCAASGRIFPGYAMRWYRQAPGKEREFVAAIRGTGTSTYYADSVKGRFTISRDNAKNTVYLQMNSLKPEDTAVYYCAASAGYAYNYWGQGTQVTVSS | low polyreactivity
QVQLVESGGGLVQAGGSLRLSCAASGRTFGDKAMGWYRQAPGKERELVAAISWSGGRTYYADSVKGRFTISRDNAKNTVYLQMNSLKPEDTAVYYCAARNNRYPLYNYWGQGTQVTVSS | low polyreactivity
QVQLVESGGGLVQAGGSLRLSCAASGSTFGVYAMGWYRQAPGKERELVAAISGSGAGTYYADSVKGRFTISRDNAKNTVYLQMNSLKPEDTAVYYCAAETYYSIYDYWGQGTQVTVSS | high polyreactivity
